± gives the standard deviation.
Test: protein stability index of a GFP-peptide fusion (GPS, HEK-293T) (PSI 1-6); higher = more stable
Conditions: c terminus: a fixed tail appended
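Note: 24-mer peptide tiles fused after GFP, lentivirally expressed, FACS-sorted into six equal bins by GFP/DsRed ratio, decoded by Illumina sequencing, PSI is the read-weighted mean bin number.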

Sequence | protein stability index (treatment: DMSO) | protein stability index (treatment: MLN4924 1 uM, 8 h)
GTSTWQFNFKFNLTEDMYAQDSIE [CNOT7] | 2.4 ± 0.2 | 2.59 ± 0.28
RRMAESLRIPEGPIDQGPAIGRVR [FUT8] | 4.22 ± 0.17 | 4.43 ± 0.18
RLVQLLVRAHQDTQRRTSMGGTQQ [CTNNB1] | 2.23 ± 0.25 | 2.54 ± 0.54
TAERKQEQKTGTEAEAADSGAVGA [MFSD9] | 5.56 ± 0.28 | 5.65 ± 0.23
RIDGKLDSPSRSPSKVEVTEKTTT [C2CD2L] | 5.42 ± 0.21 | 5.46 ± 0.11
LEVKIRDWYQRQRPSEIKDYSPYF [KRT16] | 2.19 ± 0.2 | 2.24 ± 0.49
HTLPVNRETLKRKVSGNRCASPVT [ESR2] | 4.07 ± 0.14 | 4.24 ± 0.15
VFNLFRTMGLRHLPVVNAVGEIVG [CLCN6] | 2.45 ± 0.21 | 2.29 ± 0.18
MEAGERIDASQLPHRVLETRGHAI [SMIM2] | 4.19 ± 0.44 | 4.02 ± 0.6
SEEMVKMVLSRPCHPDDQFTTSIL [INTS3] | 2.94 ± 0.34 | 2.98 ± 0.39
LDCADALLKAGADVNKTDHSQRTA [INVS] | 5.09 ± 0.38 | 5.13 ± 0.43
SDCCRKLLSSGFEIDTPDKFGRTC [ANKRD44] | 2.8 ± 0.27 | 2.97 ± 0.33
NSTPLRAACFDGRLDIVKYLVENN [FEM1B] | 2.84 ± 0.19 | 3.01 ± 0.21
RMYCSDLLNPNLKDTVICAMKITQ [SPACA3] | 2.15 ± 0.42 | 2.05 ± 0.17
RKPDYTAYVAMIPQCIKEEDTPSD [ATF4] | 4.47 ± 0.25 | 4.62 ± 0.21
ESRALSTSSNLGSQYQCENGVSGP [TBX5] | 4.95 ± 0.25 | 5.06 ± 0.21
IICEAHKVLGNRWAEIAKMLPGRT [MYBL2] | 2.25 ± 0.099 | 2.2 ± 0.16

Sequence | protein stability index (treatment: DMSO) | protein stability index (treatment: MLN4924 1 uM, 8 h)
LEQFVAILPKELQTWVRDHHPENG [ZNF24] | 3.2 ± 0.1 | 3.23 ± 0.21
QSYPSQDKPLPPPPPGSLSRTQEP [SOAT2] | 5.2 ± 0.41 | 5.08 ± 0.24
LKYENELALRQGVEADINGLRRVL [KRT15] | 3.35 ± 0.23 | 3.6 ± 0.18
RRTAENKLDTKYPYVCHAELNAIM [DCTD] | 2.29 ± 0.15 | 2.37 ± 0.49
SGEKYDPDANTWTALPPMNEARHN [GAN] | 4.61 ± 0.55 | 4.8 ± 0.13
ACALLLTSVDHDRAPVVGVRVNVL [DLC1] | 2.33 ± 0.32 | 2.68 ± 0.36
SDYESIEVPDSYTGPRLSFPLLPD [PPEF2] | 4.13 ± 0.19 | 4.09 ± 0.15
FGEDYYGPSRSRHRRRSRERGPYR [CLK3] | 3.27 ± 0.78 | 4.29 ± 0.89
CWNTSYCSIKCQQEHWHAEHKRTC [ZMYND11] | 2.31 ± 0.39 | 2.32 ± 0.22
IDCGKAFSQKSCLVAHQRYHTGKT [ZNF649] | 2.83 ± 0.24 | 2.87 ± 0.16
GATCMFVASKMKETIPLTAEKLCI [CCND1] | 2.34 ± 0.34 | 1.99 ± 0.41
PPSRAPTAAPPPPPPSRPSVAVPP [WASL] | 4.77 ± 0.21 | 4.86 ± 0.21
PSSLGPLLPLQREPLYNWQATKAS [BTBD1] | 3.36 ± 0.21 | 3.5 ± 0.14
TGLNNGRIKIWDVYTGKLLLNLVD [WSB1] | 2.54 ± 1.3 | 2.25 ± 0.61
YSSRTPGTPGTPSYPRTPHTPGTP [MAP2] | 4.25 ± 0.26 | 4.27 ± 0.2
MSSYTVAGRNVLRWDLSPEQIKTR [NLN] | 2.99 ± 0.33 | 3.04 ± 0.18
